Experimental data taken from patent US20260242735A1 (UNIVERSIT T BASEL, published 2026).

How the values were obtained:
Test in all cases: alanine scan, flow cytometry, HEK293-T;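 also: antibody binding to each alanine-substituted CD33 mutant expressed transiently in HEK293-T, read as fluorescence minus background, mean of duplicates, relative to wild-type CD33 set as 100%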
[1] = molecular target: human CD33 L93A (human, UniProt P20138 18-364)
Procedure: (§1) An alanine scan on human CD33 was performed to the determine the residues on CD33 that are involved in binding to the antibodies investigated. […] Briefly, a mutation library of CD33 was created by high-throughput, site-directed mutagenesis. Each residue was individually mutated to alanine, with alanine codons mutated to serine. The mutant library was arrayed in 384-well microplates and transiently transfected into HEK293-T. Following transfection, cells were incubated with the indicated antibodies (IgG or Fab) at concentrations pre-determined using an independent immunofluorescence titration curve on wild type CD33. […] Binding of each antibody to each mutant clone was determined in duplicates. For each point, background fluorescence was subtracted from the raw data, which were then normalized to antibody reactivity with wild type CD33.
(§2) Critical residues for antibody binding (outlined in dark grey) were residues whose mutations led to a binding of the test Abs of less than 20%. Additional secondary residues (outlined in light grey) were identified that led to a binding of the test Abs of between 20 and 40% as compared to the wild type CD33.

[2] = molecular target: human CD33 G94A (human, UniProt P20138 18-364)
Procedure: as §1, §2

[3] = molecular target: human CD33 S97A (human, UniProt P20138 18-364)
Procedure: as §1, §2

[4] = molecular target: human CD33 Y49A (human, UniProt P20138 18-364)
Procedure: as §1, §2

[5] = molecular target: human CD33 M120A (human, UniProt P20138 18-364)
Procedure: as §1, §2

[6] = molecular target: human CD33 Q87A (human, UniProt P20138 18-364)
Procedure: as §1, §2

[7] = molecular target: human CD33 F118A (human, UniProt P20138 18-364)
Procedure: as §1, §2

[8] = molecular target: human CD33 P55A (human, UniProt P20138 18-364)
Procedure: as §1, §2

[9] = molecular target: human CD33 H57A (human, UniProt P20138 18-364)
Procedure: as §1, §2

[10] = molecular target: human CD33 R110A (human, UniProt P20138 18-364)
Procedure: as §1, §2

[11] = molecular target: human CD33 R69A (human, UniProt P20138 18-364)
Procedure: as §1, §2

[12] = molecular target: human CD33 V56A (human, UniProt P20138 18-364)
Procedure: as §1, §2

[13] = molecular target: human CD33 Q83A (human, UniProt P20138 18-364)
Procedure: as §1, §2

[14] = molecular target: human CD33 Y59A (human, UniProt P20138 18-364)
Procedure: as §1, §2

[15] = molecular target: human CD33 R111A (human, UniProt P20138 18-364)
Procedure: as §1, §2

[16] = molecular target: human CD33 L103A (human, UniProt P20138 18-364)
Procedure: as §1, §2

[17] = molecular target: human CD33 E85A (human, UniProt P20138 18-364)
Procedure: as §1, §2

[18] = molecular target: human CD33 L92A (human, UniProt P20138 18-364)
Procedure: as §1, §2

[19] = molecular target: T1, human CD33 H193A (human, UniProt P20138 18-364)
T1 construct: alanine scan clone, transfected HEK293-T
Procedure: as §1, §2

[20] = molecular target: T2, human CD33 K146A (human, UniProt P20138 18-364)
T2 construct: alanine scan clone, transfected HEK293-T
Procedure: as §1, §2

[21] = molecular target: T3, human CD33 W167A (human, UniProt P20138 18-364)
T3 construct: alanine scan clone, transfected HEK293-T
Procedure: as §1, §2

[22] = molecular target: T4, human CD33 S124A (human, UniProt P20138 18-364)
T4 construct: alanine scan clone, transfected HEK293-T
Procedure: as §1, §2

[23] = molecular target: T5, human CD33 T173A (human, UniProt P20138 18-364)
T5 construct: alanine scan clone, transfected HEK293-T
Procedure: as §1, §2

[24] = molecular target: T6, human CD33 G123A (human, UniProt P20138 18-364)
T6 construct: alanine scan clone, transfected HEK293-T
Procedure: as §1, §2

[25] = molecular target: T7, human CD33 A168S (human, UniProt P20138 18-364)
T7 construct: alanine scan clone, transfected HEK293-T
Procedure: as §1, §2

[26] = molecular target: T8, human CD33 G151A (human, UniProt P20138 18-364)
T8 construct: alanine scan clone, transfected HEK293-T
Procedure: as §1, §2

[27] = molecular target: T9, human CD33 T152A (human, UniProt P20138 18-364)
T9 construct: alanine scan clone, transfected HEK293-T
Procedure: as §1, §2

[28] = molecular target: T10, human CD33 T125A (human, UniProt P20138 18-364)
T10 construct: alanine scan clone, transfected HEK293-T
Procedure: as §1, §2

[29] = molecular target: T11, human CD33 T192A (human, UniProt P20138 18-364)
T11 construct: alanine scan clone, transfected HEK293-T
Procedure: as §1, §2

[30] = molecular target: T12, human CD33 Q133A (human, UniProt P20138 18-364)
T12 construct: alanine scan clone, transfected HEK293-T
Procedure: as §1, §2

[31] = molecular target: T13, human CD33 T139A (human, UniProt P20138 18-364)
T13 construct: alanine scan clone, transfected HEK293-T
Procedure: as §1, §2

[32] = molecular target: T14, human CD33 I176A (human, UniProt P20138 18-364)
T14 construct: alanine scan clone, transfected HEK293-T
Procedure: as §1, §2

[33] = molecular target: T15, human CD33 S131A (human, UniProt P20138 18-364)
T15 construct: alanine scan clone, transfected HEK293-T
Procedure: as §1, §2

[34] = molecular target: T16, human CD33 G172A (human, UniProt P20138 18-364)
T16 construct: alanine scan clone, transfected HEK293-T
Procedure: as §1, §2

[35] = molecular target: T17, human CD33 Q171A (human, UniProt P20138 18-364)
T17 construct: alanine scan clone, transfected HEK293-T
Procedure: as §1, §2

[36] = molecular target: T18, human CD33 S135A (human, UniProt P20138 18-364)
T18 construct: alanine scan clone, transfected HEK293-T
T18 sequence (P20138 18-364 S135A limits assumed): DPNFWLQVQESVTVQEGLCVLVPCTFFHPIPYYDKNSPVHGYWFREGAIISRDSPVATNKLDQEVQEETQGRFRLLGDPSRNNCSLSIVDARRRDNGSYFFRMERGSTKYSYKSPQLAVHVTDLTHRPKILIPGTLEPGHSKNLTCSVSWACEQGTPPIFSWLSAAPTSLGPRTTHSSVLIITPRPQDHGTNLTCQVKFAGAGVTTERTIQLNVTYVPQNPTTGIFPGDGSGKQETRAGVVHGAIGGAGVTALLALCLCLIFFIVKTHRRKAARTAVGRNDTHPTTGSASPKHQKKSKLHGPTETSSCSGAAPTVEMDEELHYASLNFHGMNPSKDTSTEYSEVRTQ
Procedure: as §1, §2

human CD33 L92A, sequence (P20138 18-364 L92A limits assumed): as the sequence (P20138 18-364 S135A limits assumed) above, with L75A, A118S counted along it
human CD33 R69A, sequence (P20138 18-364 R69A limits assumed): as the sequence (P20138 18-364 S135A limits assumed) above, with R52A, A118S counted along it
T10 sequence (P20138 18-364 T125A limits assumed): as the sequence (P20138 18-364 S135A limits assumed) above, with T108A, A118S counted along it
T7 sequence (P20138 18-364 A168S limits assumed): as the sequence (P20138 18-364 S135A limits assumed) above, with A118S, A151S counted along it
human CD33 G94A, sequence (P20138 18-364 G94A limits assumed): as the sequence (P20138 18-364 S135A limits assumed) above, with G77A, A118S counted along it
T14 sequence (P20138 18-364 I176A limits assumed): as the sequence (P20138 18-364 S135A limits assumed) above, with A118S, I159A counted along it
T11 sequence (P20138 18-364 T192A limits assumed): as the sequence (P20138 18-364 S135A limits assumed) above, with A118S, T175A counted along it
human CD33 H57A, sequence (P20138 18-364 H57A limits assumed): as the sequence (P20138 18-364 S135A limits assumed) above, with H40A, A118S counted along it
human CD33 E85A, sequence (P20138 18-364 E85A limits assumed): as the sequence (P20138 18-364 S135A limits assumed) above, with E68A, A118S counted along it
human CD33 M120A, sequence (P20138 18-364 M120A limits assumed): as the sequence (P20138 18-364 S135A limits assumed) above, with M103A, A118S counted along it
human CD33 Q83A, sequence (P20138 18-364 Q83A limits assumed): as the sequence (P20138 18-364 S135A limits assumed) above, with Q66A, A118S counted along it
human CD33 L103A, sequence (P20138 18-364 L103A limits assumed): as the sequence (P20138 18-364 S135A limits assumed) above, with L86A, A118S counted along it
human CD33 Y49A, sequence (P20138 18-364 Y49A limits assumed): as the sequence (P20138 18-364 S135A limits assumed) above, with Y32A, A118S counted along it
human CD33 Q87A, sequence (P20138 18-364 Q87A limits assumed): as the sequence (P20138 18-364 S135A limits assumed) above, with Q70A, A118S counted along it
T1 sequence (P20138 18-364 H193A limits assumed): as the sequence (P20138 18-364 S135A limits assumed) above, with A118S, H176A counted along it
T15 sequence (P20138 18-364 S131A limits assumed): as the sequence (P20138 18-364 S135A limits assumed) above, with S114A, A118S counted along it
T16 sequence (P20138 18-364 G172A limits assumed): as the sequence (P20138 18-364 S135A limits assumed) above, with A118S, G155A counted along it
T9 sequence (P20138 18-364 T152A limits assumed): as the sequence (P20138 18-364 S135A limits assumed) above, with A118S, T135A counted along it
T4 sequence (P20138 18-364 S124A limits assumed): as the sequence (P20138 18-364 S135A limits assumed) above, with S107A, A118S counted along it
T13 sequence (P20138 18-364 T139A limits assumed): as the sequence (P20138 18-364 S135A limits assumed) above, with A118S, T122A counted along it
human CD33 Y59A, sequence (P20138 18-364 Y59A limits assumed): as the sequence (P20138 18-364 S135A limits assumed) above, with Y42A, A118S counted along it
T2 sequence (P20138 18-364 K146A limits assumed): as the sequence (P20138 18-364 S135A limits assumed) above, with A118S, K129A counted along it
human CD33 R110A, sequence (P20138 18-364 R110A limits assumed): as the sequence (P20138 18-364 S135A limits assumed) above, with R93A, A118S counted along it
human CD33 P55A, sequence (P20138 18-364 P55A limits assumed): as the sequence (P20138 18-364 S135A limits assumed) above, with P38A, A118S counted along it
human CD33 S97A, sequence (P20138 18-364 S97A limits assumed): as the sequence (P20138 18-364 S135A limits assumed) above, with S80A, A118S counted along it
T12 sequence (P20138 18-364 Q133A limits assumed): as the sequence (P20138 18-364 S135A limits assumed) above, with Q116A, A118S counted along it
human CD33 R111A, sequence (P20138 18-364 R111A limits assumed): as the sequence (P20138 18-364 S135A limits assumed) above, with R94A, A118S counted along it
T3 sequence (P20138 18-364 W167A limits assumed): as the sequence (P20138 18-364 S135A limits assumed) above, with A118S, W150A counted along it
T6 sequence (P20138 18-364 G123A limits assumed): as the sequence (P20138 18-364 S135A limits assumed) above, with G106A, A118S counted along it
T8 sequence (P20138 18-364 G151A limits assumed): as the sequence (P20138 18-364 S135A limits assumed) above, with A118S, G134A counted along it
human CD33 V56A, sequence (P20138 18-364 V56A limits assumed): as the sequence (P20138 18-364 S135A limits assumed) above, with V39A, A118S counted along it
human CD33 L93A, sequence (P20138 18-364 L93A limits assumed): as the sequence (P20138 18-364 S135A limits assumed) above, with L76A, A118S counted along it
human CD33 F118A, sequence (P20138 18-364 F118A limits assumed): as the sequence (P20138 18-364 S135A limits assumed) above, with F101A, A118S counted along it
T5 sequence (P20138 18-364 T173A limits assumed): as the sequence (P20138 18-364 S135A limits assumed) above, with A118S, T156A counted along it
T17 sequence (P20138 18-364 Q171A limits assumed): as the sequence (P20138 18-364 S135A limits assumed) above, with A118S, Q154A counted along it

B1: Refmab #5 (antibody, V domains shown)
VH: QVQLVQSGAEVKKPGASVKVSCKASGYTFTNYDINWVRQAPGQGLEWIGWIYPGDGSTKYNEKFKAKATLTADTSTSTAYMELRSLRSDDTAVYYCASGYEDAMDYWGQGTTVTVSS
VL: DIQMTQSPSSLSASVGDRVTINCKASQDINSYLSWFQQKPGKAPKTLIYRANRLVDGVPSRFSGSGSGQDYTLTISSLQPEDFATYYCLQYDEFPLTFGGGTKVEIK
notes: Full-length format is human IgG1 Fc silent (PG-LALA); also made as Fab; The alanine scan used IgG or Fab
- Mean % WT Binding [1]: 134 % WT binding
- Mean % WT Binding [2]: 92.2 % WT binding
- Mean % WT Binding [3]: 126 % WT binding
- Mean % WT Binding [4]: 20.6 % WT binding
- Mean % WT Binding [5]: 73.2 % WT binding
- Mean % WT Binding [6]: 137 % WT binding
- Mean % WT Binding [7]: 11.1 % WT binding
- Mean % WT Binding [8]: 118 % WT binding
- Mean % WT Binding [9]: 121 % WT binding
- Mean % WT Binding [10]: 125 % WT binding
- Mean % WT Binding [11]: 164 % WT binding
- Mean % WT Binding [12]: 93 % WT binding
- Mean % WT Binding [13]: 97 % WT binding
- Mean % WT Binding [14]: 205 % WT binding
- Mean % WT Binding [15]: 118 % WT binding
- Mean % WT Binding [16]: 91.6 % WT binding
- Mean % WT Binding [17]: 158 % WT binding
- Mean % WT Binding [18]: 127 % WT binding

B2: Refmab #6 (antibody, V domains shown)
VH: QVQLQQPGAEVVKPGASVKMSCKASGYTFTSYYIHWIKQTPGQGLEWVGVIYPGNDDISYNQKFQGKATLTADKSSTTAYMQLSSLTSEDSAVYYCAREVRLRYFDVWGQGTTVTVSS
VL: EIVLTQSPGSLAVSPGERVTMSCKSSQSVFFSSSQKNYLAWYQQIPGQSPRLLIYWASTRESGVPDRFTGSGSGTDFTLTISSVQPEDLAIYYCHQYLSSRTFGQGTKLEIK
notes: as for B1
- Mean % WT Binding [1]: 94.2 % WT binding
- Mean % WT Binding [2]: 93.1 % WT binding
- Mean % WT Binding [3]: 93.7 % WT binding
- Mean % WT Binding [4]: 113 % WT binding
- Mean % WT Binding [5]: 76.3 % WT binding
- Mean % WT Binding [6]: 96.9 % WT binding
- Mean % WT Binding [7]: 4.9 % WT binding
- Mean % WT Binding [8]: 101 % WT binding
- Mean % WT Binding [9]: 63 % WT binding
- Mean % WT Binding [10]: 98.4 % WT binding
- Mean % WT Binding [11]: 101 % WT binding
- Mean % WT Binding [12]: 113 % WT binding
- Mean % WT Binding [13]: 108 % WT binding
- Mean % WT Binding [14]: 83.2 % WT binding
- Mean % WT Binding [15]: 102 % WT binding
- Mean % WT Binding [16]: 61.5 % WT binding
- Mean % WT Binding [17]: 94.4 % WT binding
- Mean % WT Binding [18]: 85.3 % WT binding

B3: Refmab #5 (antibody, V domains shown)
VH: QVQLVQSGAEVKKPGASVKVSCKASGYTFTNYDINWVRQAPGQGLEWIGWIYPGDGSTKYNEKFKAKATLTADTSTSTAYMELRSLRSDDTAVYYCASGYEDAMDYWGQGTTVTVSS
VL: DIQMTQSPSSLSASVGDRVTINCKASQDINSYLSWFQQKPGKAPKTLIYRANRLVDGVPSRFSGSGSGQDYTLTISSLQPEDFATYYCLQYDEFPLTFGGGTKVEIK
notes: The alanine scan used IgG or Fab
- Mean % WT Binding [19]: 119 % WT binding
- Mean % WT Binding [20]: 149 % WT binding
- Mean % WT Binding [21]: 95.5 % WT binding
- Mean % WT Binding [22]: 79.4 % WT binding
- Mean % WT Binding [23]: 101 % WT binding
- Mean % WT Binding [24]: 67.5 % WT binding
- Mean % WT Binding [25]: 103 % WT binding
- Mean % WT Binding [26]: 99.6 % WT binding
- Mean % WT Binding [27]: 137 % WT binding
- Mean % WT Binding [28]: 56.7 % WT binding
- Mean % WT Binding [29]: 109 % WT binding
- Mean % WT Binding [30]: 112 % WT binding
- Mean % WT Binding [31]: 104 % WT binding
- Mean % WT Binding [32]: 97 % WT binding
- Mean % WT Binding [33]: 106 % WT binding
- Mean % WT Binding [34]: 92.7 % WT binding
- Mean % WT Binding [35]: 105 % WT binding
- Mean % WT Binding [36]: 108 % WT binding

B4: Refmab #6 (antibody, V domains shown)
VH: QVQLQQPGAEVVKPGASVKMSCKASGYTFTSYYIHWIKQTPGQGLEWVGVIYPGNDDISYNQKFQGKATLTADKSSTTAYMQLSSLTSEDSAVYYCAREVRLRYFDVWGQGTTVTVSS
VL: EIVLTQSPGSLAVSPGERVTMSCKSSQSVFFSSSQKNYLAWYQQIPGQSPRLLIYWASTRESGVPDRFTGSGSGTDFTLTISSVQPEDLAIYYCHQYLSSRTFGQGTKLEIK
notes: as for B3
- Mean % WT Binding [19]: 100 % WT binding
- Mean % WT Binding [20]: 116 % WT binding
- Mean % WT Binding [21]: 90.5 % WT binding
- Mean % WT Binding [22]: 98.2 % WT binding
- Mean % WT Binding [23]: 98.9 % WT binding
- Mean % WT Binding [24]: 94.1 % WT binding
- Mean % WT Binding [25]: 100 % WT binding
- Mean % WT Binding [26]: 91.1 % WT binding
- Mean % WT Binding [27]: 92.7 % WT binding
- Mean % WT Binding [28]: 112 % WT binding
- Mean % WT Binding [29]: 99 % WT binding
- Mean % WT Binding [30]: 88.3 % WT binding
- Mean % WT Binding [31]: 97.7 % WT binding
- Mean % WT Binding [32]: 102 % WT binding
- Mean % WT Binding [33]: 10.8 % WT binding
- Mean % WT Binding [34]: 76.8 % WT binding
- Mean % WT Binding [35]: 99.6 % WT binding
- Mean % WT Binding [36]: 110 % WT binding
